Results published in US7067277B1, “Chimeric G proteins and uses thereof” (H. Lundbeck A/S, priority 1999, dated 2006).

What was measured:
Experiment in all cases: Calcium mobilization (FLIPR, Fluo-3) in transfected COS-7 cells
Type in all cases: cell-based
m 5HT5A = m 5HT5A (Mus musculus, UniProt P30966); settings: m 5HT5A + chimera in COS-7; agonist 5HT, max 100 μM
Method in brief: (§1)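 Calcium responses to agonist were measured in COS-7 cells co-expressing each receptor with Gαq/z and/or Gαq/s chimeras, using Fluo-3 dye and FLIPR detection over 3 min at room temperature.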

h D5 = h D5 (Homo sapiens, UniProt P21918); settings: h D5 + chimera in COS-7; agonist DA, max 100 μM
Chain of h D5 (P21918 whole entry): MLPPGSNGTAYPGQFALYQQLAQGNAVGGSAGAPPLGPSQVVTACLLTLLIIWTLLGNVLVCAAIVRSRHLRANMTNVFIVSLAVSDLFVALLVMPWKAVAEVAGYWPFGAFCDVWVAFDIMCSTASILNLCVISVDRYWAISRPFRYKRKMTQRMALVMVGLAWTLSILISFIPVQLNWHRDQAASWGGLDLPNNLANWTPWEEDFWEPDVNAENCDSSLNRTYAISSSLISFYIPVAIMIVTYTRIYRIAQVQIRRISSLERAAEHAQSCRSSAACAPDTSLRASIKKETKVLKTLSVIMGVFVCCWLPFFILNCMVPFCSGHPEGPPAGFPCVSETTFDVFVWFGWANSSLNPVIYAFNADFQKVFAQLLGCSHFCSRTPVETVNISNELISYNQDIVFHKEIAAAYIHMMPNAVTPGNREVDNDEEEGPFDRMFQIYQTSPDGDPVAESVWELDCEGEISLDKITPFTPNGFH
Method in brief: as §1

r GALR1 = target: T1, r GALR1 (Rattus norvegicus, UniProt Q62805); settings: r GALR1 + chimera in COS-7; agonist GAL, max 10 μM
T1 sequence (Q62805 1-346): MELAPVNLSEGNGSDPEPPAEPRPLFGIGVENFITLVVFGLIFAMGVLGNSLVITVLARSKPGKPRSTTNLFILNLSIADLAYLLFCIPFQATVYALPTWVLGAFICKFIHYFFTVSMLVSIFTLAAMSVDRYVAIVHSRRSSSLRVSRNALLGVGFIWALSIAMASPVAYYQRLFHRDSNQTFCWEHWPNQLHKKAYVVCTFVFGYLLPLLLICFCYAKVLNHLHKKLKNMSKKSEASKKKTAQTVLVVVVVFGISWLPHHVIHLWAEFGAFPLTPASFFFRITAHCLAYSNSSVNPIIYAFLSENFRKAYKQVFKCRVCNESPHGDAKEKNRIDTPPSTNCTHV
Method in brief: as §1

h NPFF1 = target: T2, h NPFF1 (Homo sapiens, UniProt Q9GZQ6); settings: h NPFF1 + chimera in COS-7; agonist NPFF, max 10 μM
T2 construct: expressed in transfected cells; host or cells: COS-7
T2 sequence (Q9GZQ6 whole entry): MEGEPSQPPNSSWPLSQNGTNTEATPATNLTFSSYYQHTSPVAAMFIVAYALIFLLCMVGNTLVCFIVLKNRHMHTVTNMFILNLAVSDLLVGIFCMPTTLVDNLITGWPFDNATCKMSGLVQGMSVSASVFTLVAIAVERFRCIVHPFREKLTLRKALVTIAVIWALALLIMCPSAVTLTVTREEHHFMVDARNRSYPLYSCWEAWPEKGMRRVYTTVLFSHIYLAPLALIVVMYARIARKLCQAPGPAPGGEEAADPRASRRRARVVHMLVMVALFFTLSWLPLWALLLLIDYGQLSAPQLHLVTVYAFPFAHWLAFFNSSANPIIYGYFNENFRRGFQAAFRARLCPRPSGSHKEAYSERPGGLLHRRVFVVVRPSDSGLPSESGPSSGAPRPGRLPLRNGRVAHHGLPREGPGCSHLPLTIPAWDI
Method in brief: as §1

h GALR3 = target: T3, h GALR3 (Homo sapiens, UniProt O60755); settings: h GALR3 + chimera in COS-7; agonist GAL, max 10 μM
T3 sequence (O60755 1-368): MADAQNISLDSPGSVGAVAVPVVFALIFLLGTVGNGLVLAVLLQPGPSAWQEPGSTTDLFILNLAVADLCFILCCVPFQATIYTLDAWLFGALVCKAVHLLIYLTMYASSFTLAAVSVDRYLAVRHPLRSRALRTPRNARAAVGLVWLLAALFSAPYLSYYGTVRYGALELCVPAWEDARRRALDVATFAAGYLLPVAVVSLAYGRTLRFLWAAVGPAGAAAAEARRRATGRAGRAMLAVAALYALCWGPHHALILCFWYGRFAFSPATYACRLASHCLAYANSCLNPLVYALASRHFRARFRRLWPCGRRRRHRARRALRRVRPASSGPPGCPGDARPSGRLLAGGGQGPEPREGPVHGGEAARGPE
Method in brief: as §1

h α2C adr = target: T4, h α2C adr (Homo sapiens, UniProt P18825); settings: h α2C adr + chimera in COS-7; agonist NE, max 100 μM
T4 construct: expressed in transfected cells; host or cells: COS-7
T4 sequence (P18825 1-462): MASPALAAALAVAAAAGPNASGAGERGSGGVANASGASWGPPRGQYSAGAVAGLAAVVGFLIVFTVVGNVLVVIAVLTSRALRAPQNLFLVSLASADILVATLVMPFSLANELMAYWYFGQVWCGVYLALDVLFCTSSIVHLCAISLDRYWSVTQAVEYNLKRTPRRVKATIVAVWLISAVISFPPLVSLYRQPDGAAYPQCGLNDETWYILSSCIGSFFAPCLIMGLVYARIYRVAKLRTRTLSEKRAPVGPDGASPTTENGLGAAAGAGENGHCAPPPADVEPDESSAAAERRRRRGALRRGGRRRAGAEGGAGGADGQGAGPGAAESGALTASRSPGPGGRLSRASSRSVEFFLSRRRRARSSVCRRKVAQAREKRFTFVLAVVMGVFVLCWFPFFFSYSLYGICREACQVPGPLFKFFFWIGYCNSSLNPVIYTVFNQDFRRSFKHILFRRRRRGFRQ
Method in brief: as §1

h β2 adr = h β2 adr (Homo sapiens, UniProt P07550); settings: h β2 adr + chimera in COS-7; agonist NE, max 100 μM
Method in brief: as §1

Chain of m 5HT5A (P30966 whole entry): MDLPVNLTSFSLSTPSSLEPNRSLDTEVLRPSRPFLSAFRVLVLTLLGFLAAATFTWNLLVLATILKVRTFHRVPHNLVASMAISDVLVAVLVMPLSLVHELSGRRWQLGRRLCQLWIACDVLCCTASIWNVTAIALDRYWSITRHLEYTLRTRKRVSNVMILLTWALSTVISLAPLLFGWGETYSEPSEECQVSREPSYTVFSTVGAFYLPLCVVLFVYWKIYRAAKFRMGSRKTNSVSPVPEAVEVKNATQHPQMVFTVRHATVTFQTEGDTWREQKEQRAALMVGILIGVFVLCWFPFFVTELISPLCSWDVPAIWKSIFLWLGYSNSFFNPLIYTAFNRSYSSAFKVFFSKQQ

B1: cGαq/z5: chimeric Gα subunit: C-terminal final 5 amino acids of C. elegans Gαq replaced with those of hGαz (SEQ ID NO: 1) (protein)
chain: MACCLSEEAREQKRINQEIEKQLQRDKRNARRELKLLLLGTGESGKSTFIKQMRIIHGQGYSEEDKRAHIRLVYQNVFMAIQSMIRAMDTLDIKFGNESEELQEKAAVVREVDFESVTSFEEPYVSYIKELWEDSGIQECYDRRREYQLTDSAKYYLSDLRRLAVPDYLPTEQDILRVRVPTTGIIEYPFDLEQIIFRMVDVGGQRSERRKWIHCFENVTSIMFLVALSEYDQVLVECDNENRMEESKALFRTIITYPWFTNSSVILFLNKKDLLEEKILYSHLADYFPEYDGPPRDPIAAREFILKMFVDLNPDADKIIYSHFTCATDTENIRFVFAAVKDTILQHNLKYIGLC
modifications: C. elegans
B1 was tested, and the “MAXIMAL SIGNAL (FLUORESCENCE UNITS)” value (m 5HT5A) was 351 fluorescence units, the “MAXIMAL SIGNAL (FLUORESCENCE UNITS)” value (h D5) was 657 fluorescence units and the “MAXIMAL SIGNAL (FLUORESCENCE UNITS)” value (r GALR1) was 3086 fluorescence units. The “MAXIMAL SIGNAL (FLUORESCENCE UNITS)” value (h NPFF1) was 6593 fluorescence units, the “MAXIMAL SIGNAL (FLUORESCENCE UNITS)” value (h GALR3) was 1523 fluorescence units and the “MAXIMAL SIGNAL (FLUORESCENCE UNITS)” value (h α2C adr) was 4143 fluorescence units. The “MAXIMAL SIGNAL (FLUORESCENCE UNITS)” value (h β2 adr) was 1842 fluorescence units.

B2: cGαq/z9: C. elegans Gαq with Gαz portion of the C-terminal tail extended to 9 amino acids (SEQ ID NO: 2) (protein)
chain: MACCLSEEAREQKRINQEIEKQLQRDKRNARRELKLLLLGTGESGKSTFIKQMRIIHGQGYSEEDKRAHIRLVYQNVFMAIQSMIRAMDTLDIKFGNESEELQEKAAVVREVDFESVTSFEEPYVSYIKELWEDSGIQECYDRRREYQLTDSAKYYLSDLRRLAVPDYLPTEQDILRVRVPTTGIIEYPFDLEQIIFRMVDVGGQRSERRKWIHCFENVTSIMFLVALSEYDQVLVECDNENRMEESKALFRTIITYPWFTNSSVILFLNKKDLLEEKILYSHLADYFPEYDGPPRDPIAAREFILKMFVDLNPDADKIIYSHFTCATDTENIRFVFAAVKDTILQNNLKYIGLC
modifications: C. elegans
With B2 the “MAXIMAL SIGNAL (FLUORESCENCE UNITS)” value (m 5HT5A) was 270 fluorescence units, the “MAXIMAL SIGNAL (FLUORESCENCE UNITS)” value (h D5) was 797 fluorescence units and the “MAXIMAL SIGNAL (FLUORESCENCE UNITS)” value (r GALR1) was 5947 fluorescence units. For the same molecule, the “MAXIMAL SIGNAL (FLUORESCENCE UNITS)” value (h NPFF1) was 2966 fluorescence units, the “MAXIMAL SIGNAL (FLUORESCENCE UNITS)” value (h GALR3) was 2050 fluorescence units and the “MAXIMAL SIGNAL (FLUORESCENCE UNITS)” value (h α2C adr) was 3874 fluorescence units. For the same molecule, the “MAXIMAL SIGNAL (FLUORESCENCE UNITS)” value (h β2 adr) was 1697 fluorescence units.
